In PMC2874008, “Agrin Binds BMP2, BMP4 and TGFβ1” (PLoS ONE, 2010):

B1: N-terminal part of rat agrin (Agrin-Nterm) (domain or fragment)
chain: RSDVCRGMLCGFGAVCEPSVEDPGRASCVCKKNACPATVAPVCGSDASTYSNECELQRAQCNQQRRIRLLRQGPCGSRDPCANVTCSFGSTCVPSADGQTASCLCPTTCFGAPDGTVCGSDGVDYPSECQLLSHACASQEHIFKKFNGPCDPCQGSMSDLNHICRVNPRTRHPEMLLRPENCPAQHTPICGDDGVTYENDCVMSRIGATRGLLLQKVRSGQCQTRDQCPETCQFNSVCLSRRGRPHCSCDRVTCDGSYRPVCAQDGHTYNNDCWRQQAECRQQRAIPPKHQGPCDQTPSPCHGVQCAFGAVCTVKNGKAECECQRVCSGIYDPVCGSDGVTYGSVCELESMACTLGREIQVARRGPCDPCGQCRFGSLCEVETGRCVCPSECVESAQPVCGSDGHTYASECELHVHACTHQISLYVASAGHCQTCGEKVCTFGAVCSAGQCVCPRCEHPPPGPVCGSDGVTYLSACELREAACQQQVQIEEAHAGPCEPAECGSGGSGSGEDDECEQELCRQRGGIWDEDSEDGPCVCDFSCQSVPRSPVCGSDGVTYGTECDLKKARCESQQELYVAAQGACRGPTLAPLLPVAFPHCAQTPYGCCQDNFTAAQGVGLAGCPSTCHCNPHGSYSGTCDPATGQCSCRPGVGGLRCDRCEPGFWNFRGIVTDGHSGCTPCSCDPRGAVRDDCEQMTGLCSCRPGVAGPKCGQCPDGQVLGHLGCEADPMTPVTCVEIHCEFGASCVEKAGFAQCICPTLTCPEANSTKVCGSDGVTYGNECQLKAIACRQRLDISTQSLGPCQ
modifications: glycosylation at multiple sites (proteoglycan smear on SDS-PAGE)
notes: not agrin residues; rat agrin, residues Asp65-Gln865, amplified from rat agrin cDNA NM_175754.1; numbers count on: the protein encoded by NM_175754.1; Calculated molecular mass of the recombinant protein 88,054 Da
B2: Mature human BMP2 (ligand, UniProt P12643 283-396, looked up)
chain: QAKHKQRKRLKSSCKRHPLYVDFSDVGWNDWIVAPPGYHAFYCHGECPFPLADHLNSTNHAIVQTLVNSVNSKIPKACCVPTELSAISMLYLDENEKVVLKNYQDMVVEGCGCR
notes: bone morphogenetic protein 2, human, mature growth factor; source: bought: R&D Systems
B3: Mature human BMP4 (ligand, UniProt P12644 293-408, looked up)
chain: SPKHHSQRARKKNKNCRRHSLYVDFSDVGWNDWIVAPPGYQAFYCHGDCPFPLADHLNSTNHAIVQTLVNSVNSSIPKACCVPTELSAISMLYLDEYDKVVLKNYQEMVVEGCGCR
notes: bone morphogenetic protein 4, human, mature growth factor; source: bought: R&D Systems

How the values were obtained:
Mature human BMP2 = molecular target: B2; experiment: SPR; solution-competition: constant concentration of growth factor (40 nM BMP2, 40 nM BMP4 or 4 nM TGFβ1) preincubated 30 min at room temperature with increasing Agrin-Nterm, injected over immobilised ECD of the receptor (BMPR1A or TGF-βsRII) on CM5; 20 mM HEPES, 150 mM NaCl, 5 mM EDTA, 0.005% Tween 20, pH 7.5; 50% decrease in kobs by the method of Nieba et al.; conditions: both partners purified
Mature human BMP4 = molecular target: B3; experiment: as above; conditions: both partners purified
[1] = molecular target: Mature human TGFβ1 (human); experiment: SPR; BIAcore X; BMP2, BMP4 or TGFβ1 immobilised on CM5 chips by amine coupling, Agrin-Nterm injected at 20 µl/min; 20 mM HEPES, 150 mM NaCl, 5 mM EDTA, 0.005% Tween 20, pH 7.5; global fit, 1:1 Langmuir model
Mature human TGFβ1 (human), sequence (P01137 279-390): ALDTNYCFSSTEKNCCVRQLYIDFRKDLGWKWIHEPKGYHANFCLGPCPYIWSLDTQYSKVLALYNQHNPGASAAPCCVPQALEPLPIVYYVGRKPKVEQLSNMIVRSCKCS

[2] = molecular target: Mature human TGFβ1 (human); experiment: SPR; solution-competition: constant concentration of growth factor (40 nM BMP2, 40 nM BMP4 or 4 nM TGFβ1) preincubated 30 min at room temperature with increasing Agrin-Nterm, injected over immobilised ECD of the receptor (BMPR1A or TGF-βsRII) on CM5; 20 mM HEPES, 150 mM NaCl, 5 mM EDTA, 0.005% Tween 20, pH 7.5; 50% decrease in kobs by the method of Nieba et al.
[3] = molecular target: B1; experiment: SPR; BIAcore X; BMP2, BMP4 or TGFβ1 immobilised on CM5 chips by amine coupling, Agrin-Nterm injected at 20 µl/min; 20 mM HEPES, 150 mM NaCl, 5 mM EDTA, 0.005% Tween 20, pH 7.5; global fit, 1:1 Langmuir model; conditions: both partners purified

Row | Binder | IC50 (Mature human BMP2) | IC50 (Mature human BMP4) | Kd [1] | koff [1] | kon [1] | IC50 [2] | Kd [3] | koff [3] | kon [3]
1 | B1 | 12 nM | 345 nM | 51.5 nM | 0.000172 s⁻¹ | 3340 M⁻¹ s⁻¹ | 2000 nM | – | – | –
2 | B2 | – | – | – | – | – | – | 262 nM | 0.000286 s⁻¹ | 1090 M⁻¹ s⁻¹
3 | B3 | – | – | – | – | – | – | 257 nM | 0.000412 s⁻¹ | 1610 M⁻¹ s⁻¹
